Source: the supplement of paper PMC11246515
± gives the standard deviation of the averaged measurements.

Experiment: total protein half-life in vivo (active degradation + dilution); higher = more stable protein
[1] = E. coli NCM3722 delta-clpP delta-lon delta-hslV, growth: N-lim chemostat, doubling time 6 h
[2] = E. coli NCM3722 delta-clpP, growth: N-lim chemostat, doubling time 6 h
[3] = E. coli NCM3722 delta-hslV, growth: N-lim chemostat, doubling time 6 h
[4] = E. coli NCM3722 delta-lon, growth: N-lim chemostat, doubling time 6 h
[5] = E. coli NCM3722 delta-smpB, growth: N-lim chemostat, doubling time 6 h
[6] = wild type E. coli NCM3722, growth: C-lim chemostat, doubling time 3 h
[7] = wild type E. coli NCM3722, growth: C-lim chemostat, doubling time 6 h
[8] = wild type E. coli NCM3722, growth: C-lim chemostat, doubling time 12 h
[9] = wild type E. coli NCM3722, growth: N-lim chemostat, doubling time 6 h
[10] = wild type E. coli NCM3722, growth: N-lim chemostat, doubling time 12 h
[11] = wild type E. coli NCM3722, growth: P-lim chemostat, doubling time 6 h
[12] = wild type E. coli NCM3722, growth: P-lim chemostat, doubling time 12 h

Sequence	total protein half-life in vivo [1] [h]	total protein half-life in vivo [2] [h]	total protein half-life in vivo [3] [h]	total protein half-life in vivo [4] [h]	total protein half-life in vivo [5] [h]	total protein half-life in vivo [6] [h]	total protein half-life in vivo [7] [h]	total protein half-life in vivo [8] [h]	total protein half-life in vivo [9] [h]	total protein half-life in vivo [10] [h]	total protein half-life in vivo [11] [h]	total protein half-life in vivo [12] [h]
MTEPLTETPELSAKYAWFFDLDGTLAEIKPHPDQVVVPDNILQGLQLLATASDGALALISGRSMVELDALAKPYRFPLAGVHGAERRDINGKTHIVHLPDAIARDISVQLHTVIAQYPGAELEAKGMAFALHYRQAPQHEDALMTLAQRITQIWPQMALQQGKCVVEIKPRGTSKGEAIAAFMQEAPFIGRTPVFLGDDLTDESGFAVVNRLGGMSVKIGTGATQASWRLAGVPDVWSWLEMITTALQQKRENNRSDDYESFSRSI	5.34 ± 2.1	3.13 ± 0.27	2.4 ± 0.1	2.67 ± 0.028	2.32 ± 0.11	2.55	4.3 ± 0.26	6.12 ± 0.22	2.5 ± 0.13	3.59 ± 0.55	3.2 ± 1	6.94 ± 0.087
MTESVARLRGEQLTLGYGKYTVAENLTVEIPDGHFTAIIGPNGCGKSTLLRTLSRLMTPAHGHVWLDGEHIQHYASKEVARRIGLLAQNATTPGDITVQELVARGRYPHQPLFTRWRKEDEEAVTKAMQATGITHLADQSVDTLSGGQRQRAWIAMVLAQETAIMLLDEPTTWLDISHQIDLLELLSELNREKGYTLAAVLHDLNQACRYASHLIALREGKIVAQGAPKEIVTAELIERIYGLRCMIIDDPVAGTPLVVPLGRTAPSTANS					3.69	3.78	5.57	> 16		7.66		
MTETIKVSESLELHAVAENHVKPLYQLICKNKTWLQQSLNWPQFVQSEEDTRKTVQGNVMLHQRGYAKMFMIFKEDELIGVISFNRIEPLNKTAEIGYWLDESHQGQGIISQALQALIHHYAQSGELRRFVIKCRVDNPQSNQVALRNGFILEGCLKQAEFLNDAYDDVNLYARIIDSQ	4.21 ± 0.68	4.2 ± 0.35	3.75 ± 0.27	3.31 ± 0.19	4.22 ± 0.22	3.18 ± 0.37	5.79 ± 0.19	8.82 ± 2.3	4.47	6.48 ± 0.098	5.61 ± 0.16	13.7 ± 0.43
MTFIKGLPLMLLTISLGCNAAVQPDRTRIVFNANDKATSLRIENQSDKLPYLAYSWIENEKGEKSDALLVALPPIQRLEPKATSQVRVVKQASTTQLPGDRETLFFYNMREIPPAPDKSSDHAILQVAIQSRIKLFWRPAALRKKAGEKVELQLQVSQQGNQLTLKNPTAYYLTIAYLGRNEKGVLPGFKTVMVAPFSTVNTNTGSYSGSQFYLGYMDDYGALRMTTLNCSGQCRLQAVEAK	> 8									14.3		
MTGMTNVTKLASEPSGQEFLVFTLGDEEYGIDILKVQEIRGYDQVTRIANTPAFIKGVTNLRGVIVPIVDLRIKFSQVDVDYNDNTVVIVLNLGQRVVGIVVDGVSDVLSLTAEQIRPAPEFAVTLSTEYLTGLGALGDRMLILVNIEKLLNSEEMALLDSAASEVA [P0A964]	5.19 ± 0.61	4.56 ± 0.37	5.25	5.4 ± 0.52	> 8	1.741 ± 0.013	1.86 ± 0.086	3.67 ± 1.6	1.74	2.23	0.859	9.75
MTGQSSSQAATPIQWWKPALFFLVVIAGLWYVKWEPYYGKAFTAAETHSIGKSILAQADANPWQAALDYAMIYFLAVWKAAVLGVILGSLIQVLIPRDWLLRTLGQSRFRGTLLGTLFSLPGMMCTCCAAPVAAGMRRQQVSMGGALAFWMGNPVLNPATLVFMGFVLGWGFAAIRLVAGLVMVLLIATLVQKWVRETPQTQAPVEIDIPEAQGGFFSRWGRALWTLFWSTIPVYILAVLVLGAARVWLFPHADGAVDNSLMWVVAMAVAGCLFVIPTAAEIPIVQTMMLAGMGTAPALALLMTLPAVSLPSLIMLRKAFPAKALWLTGAMVAVSGVIVGGLALLF					4.43 ± 0.43					5.72		
MTHFSQQDNFSVAARVLGALFYYAPESAEAAPLVAVLTSDGWETQWPLPEASLAPLVTAFQTQCEETHAQAWQRLFVGPWALPSPPWGSVWLDRESVLFGDSTLALRQWMREKGIQFEMKQNEPEDHFGSLLLMAAWLAENGRQTECEELLAWHLFPWSTRFLDVFIEKAEHPFYRALGELARLTLAQWQSQLLIPVAVKPLFR	3.98 ± 0.19	4.54 ± 1.1	4.18 ± 0.73	5.74 ± 1.5	4.5 ± 0.51	3 ± 0.17	5.45	11.7 ± 1.3	4.4 ± 0.41	7.72 ± 1.9	5.41 ± 0.39	11.3 ± 0.19
MTHIRIEKGTGGWGGPLELKATPGKKIVYITAGTRPAIVDKLAQLTGWQAIDGFKEGEPAEAEIGVAVIDCGGTLRCGIYPKRRIPTINIHSTGKSGPLAQYIVEDIYVSGVKEENITVVGDATPQPSSVGRDYDTSKKITEQSDGLLAKVGMGMGSTVAVLFQSGRDTIDTVLKTILPFMAFVSALIGIIMASGLGDWIAHGLAPLASHPLGLVMLALICSFPLLSPFLGPGAVIAQVIGVLIGVQIGLGNIPPHLALPALFAINAQAACDFIPVGLSLAEARQDTVRVGVPSVLVSRFLTGAPTVLIAWFVSGFIYQ		5.44		5.5		2.06 ± 0.099	4.93		4.5			
MTHVCSVILIRRSFDIYHEQQKISLHNESILLLEKNLADDFAFCSPDTRRLDIDELTVCHYLQNIRQLPRNLGLHSKDRLLINQSPPMPLVTAIFDSFNESGVNSPILSNMLYLSCLSMFSHKKELIPLLFNSISTVSGKVERLISFDIAKRWYLRDIAERMYTSESLIKKKLQDENTCFSKILLASRMSMARRLLELRQIPLHTIAEKCGYSSTSYFINTFRQYYGVTPHQFAQHSPGTFS	5.33 ± 0.16	1.51			0.628				0.171			
MTIFDNYEVWFVIGSQHLYGPETLRQVTQHAEHVVNALNTEAKLPCKLVLKPLGTTPDEITAICRDANYDDRCAGLVVWLHTFSPAKMWINGLTMLNKPLLQFHTQFNAALPWDSIDMDFMNLNQTAHGGREFGFIGARMRQQHAVVTGHWQDKQAHERIGSWMRQAVSKQDTRHLKVCRFGDNMREVAVTDGDKVAAQIKFGFSVNTWAVGDLVQVVNSISDGDVNALVDEYESCYTMTPATQIHGKKRQNVLEAARIELGMKRFLEQGGFHAFTTTFEDLHGLKQLPGLAVQRLMQQGYGFAGEGDWKTAALLRIMKVMSTGLQGGTSFMEDYTYHFEKGNDLVLGSHMLEVCPSIAAEEKPILDVQHLGIGGKDDPARLIFNTQTGPAIVASLIDLGDRYRLLVNCIDTVKTPHSLPKLPVANALWKAQPDLPTASEAWILAGGAHHTVFSHALNLNDMRQFAEMHDIEITVIDNDTRLPAFKDALRWNEVYYGFRR	3.94 ± 0.26	3.03 ± 0.081	3.07	3.405 ± 0.014	3.25 ± 0.17	2.84 ± 0.36	5.77 ± 0.19	9.63 ± 1.2	3.26		5.05 ± 0.14	11.6 ± 1.2
MTIHKKGQAHWEGDIKRGKGTVSTESGVLNQQPYGFNTRFEGEKGTNPEELIGAAHAACFSMALSLMLGEAGFTPTSIDTTADVSLDKVDAGFAITKIALKSEVAVPGIDASTFDGIIQKAKAGCPVSQVLKAEITLDYQLKS [P0C0L2]	5.71 ± 0.14	5.45 ± 0.62	5.59 ± 0.41	5.84 ± 0.083	4.963 ± 0.042	3.08 ± 0.62	6.63 ± 0.81	12.1 ± 0.22	5.3 ± 0.28	9.59 ± 0.6	5.84 ± 0.082	12.6 ± 0.93
